According to IntAct's records for PubMed 10318831:

B1: Semaphorin-4C (Mus musculus), Q64151 (parent)
chain: MAPHWAVWLLAAGLWGLGIGAEMWWNLVPRKTVSSGELVTVVRRFSQTGIQDFLTLTLTEHSGLLYVGAREALFAFSVEALELQGAISWEAPAEKKIECTQKGKSNQTECFNFIRFLQPYNSSHLYVCGTYAFQPKCTYINMLTFTLDRAEFEDGKGKCPYDPAKGHTGLLVDGELYSATLNNFLGTEPVILRYMGTHHSIKTEYLAFWLNEPHFVGSAFVPESVGSFTGDDDKIYFFFSERAVEYDCYSEQVVARVARVCKGDMGGARTLQKKWTTFLKARLVCSAPDWKVYFNQLKAVHTLRGASWHNTTFFGVFQARWGDMDLSAVCEYQLEQIQQVFEGPYKEYSEQAQKWARYTDPVPSPRPGSCINNWHRDNGYTSSLELPDNTLNFIKKHPLMEDQVKPRLGRPLLVKKNTNFTHVVADRVPGLDGATYTVLFIGTGDGWLLKAVSLGPWIHMVEELQVFDQEPVESLVLSQSKKVLFAGSRSQLVQLSLADCTKYRFCVDCVLARDPYCAWNVNTSRCVATTSGRSGSFLVQHVANLDTSKMCNQYGIKKVRSIPKNITVVSGTDLVLPCHLSSNLAHAHWTFGSQDLPAEQPGSFLYDTGLQALVVMAAQSRHSGPYRCYSEEQGTRLAAESYLVAVVAGSSVTLEARAPLENLGLVWLAVVALGAVCLVLLLLVLSLRRRLREELEKGAKASERTLVYPLELPKEPASPPFRPGPETDEKLWDPVGYYYSDGSLKIVPGHARCQPGGGPPSPPPGIPGQPLPSPTRLHLGGGRNSNANGYVRLQLGGEDRGGSGHPLPELADELRRKLQQRQPLPDSNPEESSV
partner: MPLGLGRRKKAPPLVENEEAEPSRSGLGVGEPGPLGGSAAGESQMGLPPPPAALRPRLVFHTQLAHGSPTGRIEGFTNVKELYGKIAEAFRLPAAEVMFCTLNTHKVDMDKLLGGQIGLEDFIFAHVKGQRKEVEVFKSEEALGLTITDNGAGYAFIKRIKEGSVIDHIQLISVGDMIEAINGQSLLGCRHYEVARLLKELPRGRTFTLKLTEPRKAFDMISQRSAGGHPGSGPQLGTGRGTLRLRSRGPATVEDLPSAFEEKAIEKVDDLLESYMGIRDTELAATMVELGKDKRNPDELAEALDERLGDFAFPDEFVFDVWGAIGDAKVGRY

Variants of: B1
Details: with gipc1_mouse Gipc1, Q9Z0G0

| effect of a mutation on the interaction | Variant |
| --- | --- |
| disrupting interaction | S832D |
| disrupting interaction | S832A |
